Test results from the supplement of paper PMC10567573.

B1: TBC1D10A (parent)
chain: WCLVQICEKYLPGYYSEKLEAIQL

Variants of: B1
Assay: protein stability index of a GFP-peptide fusion (GPS, HEK-293T) (PSI 1-6); higher = more stable
Conditions: c terminus: a fixed tail appended
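Also: lentivirally expressed fusions sorted by FACS into six bins by GFP to DsRed ratio, PSI derived from sequencing read proportions per bin multiplied by bin number.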

Variant	protein stability index
WCLLQICEKYLPGYYSEKLEAIQL [V4L]	2.19
WCLPQICEKYLPGYYSEKLEAIQL [V4P]	1.73
WCLHQICEKYLPGYYSEKLEAIQL [V4H]	1.59
WRLVQICEKYLPGYYSEKLEAIQL [C2R]	3.28
WPLVQICEKYLPGYYSEKLEAIQL [C2P]	1.86
WSLVQICEKYLPGYYSEKLEAIQL [C2S]	1.67
WCLVPICEKYLPGYYSEKLEAIQL [Q5P]	2.69
WCLVVICEKYLPGYYSEKLEAIQL [Q5V]	4.85
WCLVGICEKYLPGYYSEKLEAIQL [Q5G]	3.13
WCLVLICEKYLPGYYSEKLEAIQL [Q5L]	3.52
WCLVMICEKYLPGYYSEKLEAIQL [Q5M]	2.16
WCLVKICEKYLPGYYSEKLEAIQL [Q5K]	1.71
WCLVFICEKYLPGYYSEKLEAIQL [Q5F]	2.92
WCLVSICEKYLPGYYSEKLEAIQL [Q5S]	2.72
WCLVQILEKYLPGYYSEKLEAIQL [C7L]	3.68
WCLVQIKEKYLPGYYSEKLEAIQL [C7K]	2.9
WCLVQIDEKYLPGYYSEKLEAIQL [C7D]	2.31
WCLVQIMEKYLPGYYSEKLEAIQL [C7M]	2.57
WCLVQINEKYLPGYYSEKLEAIQL [C7N]	3.08
WCLVQIYEKYLPGYYSEKLEAIQL [C7Y]	3.39
WCLVQITEKYLPGYYSEKLEAIQL [C7T]	3.5
WCLVQIREKYLPGYYSEKLEAIQL [C7R]	3.73
WCLVQPCEKYLPGYYSEKLEAIQL [I6P]	2.45
WCLVQCCEKYLPGYYSEKLEAIQL [I6C]	3.08

Variant	protein stability index
WCLVQGCEKYLPGYYSEKLEAIQL [I6G]	1.73
WCLVQKCEKYLPGYYSEKLEAIQL [I6K]	2.41
WCLVQICEKYLPGYYSEKLEPIQL [A21P]	3.77
WCLVQICEKYLPGYYSEKLECIQL [A21C]	4.65
WCLVQICEKYLPGYYSEKLEGIQL [A21G]	2.02
WCLVQICEKYLPGYYSEKLEHIQL [A21H]	3.56
WCLVQICEKYLPGYYSEKLEEIQL [A21E]	3.38
WCLVQICEKYLPGYYSEKLEQIQL [A21Q]	2.37
WCLVQICEKYLPGYYSEKLETIQL [A21T]	2.15
WCLVQICEKYLPGYYSEKLELIQL [A21L]	4.51
WCLVQICEKYLPGYYSEKLEMIQL [A21M]	3.73
WCLVQICEKYLPGYYSEKLERIQL [A21R]	2.99
WCLVQICEKYLPGYYPEKLEAIQL [S16P]	2.1
WCLVQICEKYLPGYYEEKLEAIQL [S16E]	4.03
WCLVQICEKYLPGYYDEKLEAIQL [S16D]	2.24
WCLVQICEKYLPGYYYEKLEAIQL [S16Y]	2.7
WCLVQICEKYLPGYYHEKLEAIQL [S16H]	1.6
WCLVQICEKYLPGYYWEKLEAIQL [S16W]	3.94
WCLVQICEKYLPGYYSEKLAAIQL [E20A]	2.21
WCLVQICEKYLPGYYSEKLHAIQL [E20H]	3.07
WCLVQICEKYLPGYYSEKLDAIQL [E20D]	1.79
WCLVQICEKYLPGYYSEKLRAIQL [E20R]	1.8
WCLVQICEKYLPGYYSEKLTAIQL [E20T]	1.47
WCLVQICEKYLPGYYSEKLQAIQL [E20Q]	2.79

Variant	protein stability index
WCLVQICEKYLPGYYSEKLKAIQL [E20K]	3.35
WCLVQICEKYLPGYYSEKLWAIQL [E20W]	1.74
WCLVQICEKYLPGYYSEKLIAIQL [E20I]	2.3
WCLVQICEKYLPGYYSEKLSAIQL [E20S]	2.64
WCLVQICEKYLPGPYSEKLEAIQL [Y14P]	2.61
WCLVQICEKYLPGVYSEKLEAIQL [Y14V]	3.94
WCLVQICEKYLPGDYSEKLEAIQL [Y14D]	3.02
WCLVQICEKYLPGKYSEKLEAIQL [Y14K]	3.06
WCLVQICEKYLPGNYSEKLEAIQL [Y14N]	3.59
WCLVQICEKYLPGEYSEKLEAIQL [Y14E]	1.59
WCLVQICEKYLPGYWSEKLEAIQL [Y15W]	2.85
WCLVQICEKYLPGYCSEKLEAIQL [Y15C]	2.35
WCLVQICEKYLPGYFSEKLEAIQL [Y15F]	1.24
WCLVQICEKQLPGYYSEKLEAIQL [Y10Q]	2.39
WCLVQICEKMLPGYYSEKLEAIQL [Y10M]	3.09
WCLVQICEKPLPGYYSEKLEAIQL [Y10P]	2.35
WCLVQICEKVLPGYYSEKLEAIQL [Y10V]	1.61
WCLVQICEKKLPGYYSEKLEAIQL [Y10K]	2.62
WCLVQICEKILPGYYSEKLEAIQL [Y10I]	1.18
WCLVQICEKWLPGYYSEKLEAIQL [Y10W]	4.21
WCLVQICEKGLPGYYSEKLEAIQL [Y10G]	4.89
WCWVQICEKYLPGYYSEKLEAIQL [L3W]	1.02
WCPVQICEKYLPGYYSEKLEAIQL [L3P]	1.5
WCGVQICEKYLPGYYSEKLEAIQL [L3G]	3.3

Variant	protein stability index
WCMVQICEKYLPGYYSEKLEAIQL [L3M]	2.45
WCSVQICEKYLPGYYSEKLEAIQL [L3S]	1.88
WCHVQICEKYLPGYYSEKLEAIQL [L3H]	1.87
WCDVQICEKYLPGYYSEKLEAIQL [L3D]	1.29
WCTVQICEKYLPGYYSEKLEAIQL [L3T]	4.55
WCNVQICEKYLPGYYSEKLEAIQL [L3N]	1.88
WCCVQICEKYLPGYYSEKLEAIQL [L3C]	3.05
WCLVQICEKYLPGYYSEKNEAIQL [L19N]	3.63
WCLVQICEKYLPGYYSEKVEAIQL [L19V]	2.92
WCLVQICEKYLPGYYSEKEEAIQL [L19E]	4.16
WCLVQICEKYLPGYYSEKQEAIQL [L19Q]	3.88
WCLVQICEKYLPGYYSEKPEAIQL [L19P]	1.99
WCLVQICEKYLPGYYSEKCEAIQL [L19C]	4.85
WCLVQICEKYLPGYYSHKLEAIQL [E17H]	1.77
WCLVQICEKYLPGYYSCKLEAIQL [E17C]	2.56
WCLVQICEKYLPGYYSVKLEAIQL [E17V]	3.99
WCLVQICEKYLPGYYSKKLEAIQL [E17K]	1.66
WCLVQICEKYLPGYYSQKLEAIQL [E17Q]	1.94
WCLVQICEKYLPGYYSPKLEAIQL [E17P]	2.03
WCLVQICEKYLPGYYSMKLEAIQL [E17M]	3.65
WCLVQICEKYLPGYYSLKLEAIQL [E17L]	3.48
WCLVQICEKYLPGYYSIKLEAIQL [E17I]	2.74
